Consider one substance from US20090148863A1.

Assay [1] has as its target T-ZZ (transmembrane/translocation (T) domain of diphtheria toxin fused at its C-terminus with ZZ, a small portion of protein A) (UniProt P00588). Description: slope of FIG. 6A in the first 60 min, 2.78 nM AgMMUA-IgG, T-ZZ at 0.37 molecules/um^2 on living cells.
Assay [2] has the same target. Put plainly: slope of FIG. 6A in the first 60 min, 11.12 nM AgMMUA-IgG, T-ZZ at 0.37 molecules/um^2 on living cells.
Assay [3] has the same target. Put plainly: counting single bound nanoparticles on living cells with T-ZZ against time (SNOMS, FIG. 6A).
Assay [4] has the same target. Put plainly: single nanoparticle imaging on living cells with T-ZZ, value given in the summary.
Assay [5] shares this target. Put plainly: isotherm of the fraction of bound T-ZZ on living cells against AgMMUA-IgG concentration at equilibrium (SNOMS).
Assay [6] addresses protein A (PrA) from Staphylococcus aureus (Staphylococcus aureus) (UniProt P38507). Put plainly: UV-vis absorbance against time, simulation matched to the data of FIG. 3B.
The target of assay [7] is T-ZZ (transmembrane/translocation (T) domain of diphtheria toxin fused at its C-terminus with ZZ, a small portion of protein A) (UniProt P00588). Description: slope of FIG. 6A in the first 60 min, 1.39 nM AgMMUA-IgG, T-ZZ at 0.37 molecules/um^2 on living cells.
Assay [8] concerns the target protein A (PrA) from Staphylococcus aureus (Staphylococcus aureus) (UniProt P38507). Description: UV-vis absorbance against time, slope of FIG. 3C.
The target of assay [9] is T-ZZ (transmembrane/translocation (T) domain of diphtheria toxin fused at its C-terminus with ZZ, a small portion of protein A) (UniProt P00588). Put plainly: slope of FIG. 6A in the first 60 min, 5.56 nM AgMMUA-IgG, T-ZZ at 0.37 molecules/um^2 on living cells.
Assay [10] addresses protein A (PrA) from Staphylococcus aureus (Staphylococcus aureus) (UniProt P38507). Description: UV-vis absorbance change, 1.1 nM AgMMUA-IgG with about 100 nM PrA in PBS.
Assay [11] addresses T-ZZ (transmembrane/translocation (T) domain of diphtheria toxin fused at its C-terminus with ZZ, a small portion of protein A) (UniProt P00588). Description: slope of FIG. 6B, 2.78 nM AgMMUA-IgG, T-ZZ at 0.21 molecules/um^2 on living cells.
Assay [12] addresses protein A (PrA) from Staphylococcus aureus (Staphylococcus aureus) (UniProt P38507). Description: UV-vis absorbance, average of equilibrium and kinetic methods, three repeats.

UniProt P00588, sequence (P00588 234-410): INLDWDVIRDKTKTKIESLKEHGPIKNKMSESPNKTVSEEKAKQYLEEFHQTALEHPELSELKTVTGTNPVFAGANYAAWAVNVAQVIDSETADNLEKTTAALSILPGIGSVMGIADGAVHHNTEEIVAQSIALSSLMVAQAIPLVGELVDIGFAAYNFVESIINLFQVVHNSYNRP

What is called koff is a measure of how fast the partners let go of each other. For orientation: kon means the second-order rate constant of association. Read a low kon as slow association. With “AgMMUA-IgG nanoparticles (immunoglobulin G from rabbit serum covalently conjugated to 11.6 nm Ag nanoparticles carrying a mixed MUA/MCH monolayer) (antibody)”, the binding rate (molecules/min) in assay [1] came to 5.3; in assay [2] it was 27; in assay [7], 3; in assay [9], 20; in assay [11], 2.3. The Ka turned out to be 3e+07 M⁻¹ in assay [3], 4.3e+07 M⁻¹ in assay [4], 4.8e+07 M⁻¹ in assay [5] and 1.9e+06 M⁻¹ in assay [12]. Further, the koff is 0.0003 s⁻¹ in assay [3] and 5.4e-05 s⁻¹ in [6]. The kon in assay [3] came to 9000 M⁻¹ s⁻¹; in assay [8], 120 M⁻¹ s⁻¹. Moreover, the amount of AgMMUA-IgG nanoparticles bound with PrA at equilibrium in assay [10] was 0.14 nM.
